One test concerns the target T1, CXCR4 (Homo sapiens, UniProt P61073).
T1 construct: purchased Millipore
Put plainly: β-arrestin-2 recruitment BRET assay in HEK293 cells. The settings on record: concentrations increased to 10 and 100 μM. The test is classed as cell-based. As to the method:
β-arrestin-2 recruitment. β-arrestin-2 recruitment was measured using an intermolecular BRET assay performed as described previously. HEK293E cells were cotransfected with […] of CXCR4-eYFP construct with […] of β-arrestin-2-RLuc (a gift from Michel Bouvier, University of Montreal, Montreal, QC, Canada). For [acceptor]/[donor]titrations […] of β-arrestin-2-RLuc were cotransfected with increasing amounts of the CXCR4-eYFP construct. All transfections were completed to 2 mg/well with empty vector. […] Cells were washed once with PBS, and the RLuc substrate coelenterazine-II (NanoLight Technology) was added at a final concentration of […] to BRET buffer (PBS, 0.5 mM MgCl2, 0.1% w/v glucose). β-arrestin recruitment was measured 30 min after ligand addition. […]
β-arrestin-2 recruitment. β-arrestin-2 recruitment was measured using an intermolecular BRET assay performed as described previously. […] The medium of the cells was then changed to BRET buffer (PBS, 0.5 mM MgC2, 0.1% (w/v) BSA). β-arrestin-2 recruitment was measured 15 min after ligand addition, and 10 min after the addition of the RLuc3 substrate coelenterazine400a (NanoLight Technology) at a final concentration of […]. […]

In another test the test system is U-937 cells. Put plainly: Agarose microdroplet assay of U-937 migration. The format is cell-based. The following applies: 18-24 h, serum-containing media. As to the method: Agarose microdroplet assay. The agarose microdroplet assay was performed to determine U-937 cellular migration, as previously described. 0.5×10^6 cells/ml U-937 target cells were harvested and washed in HBSS. Cells were spun at 2,000 rpm and were transferred to a graduated 15 ml glass conical tube. The cell concentration was adjusted in agarose medium, prepared from 2% low melting temperature Seaplaque agarose and medium containing 15% FBS, using a 1:4 volume-to-volume dilution. A 1 μl agarose droplet containing 1-10^5 target cells was placed in the center of each well of a 96-well flat-bottom tissue culture plate, in triplicate, using a gastight 0.05 ml Hamilton syringe (Hamilton Company, Reno, Nev.). Droplets were allowed to harden at 4° C. for 20 min. 200 μl chilled test media was applied to each well. […] The plate was incubated for 18-24 h at 37° C. and 5% CO2. Following incubation, the radius of each droplet was determined and target cell migration was measured at four directional points 900 from one another, using an inverted light microscope equipped with a gridded eyepiece, at 40× total magnification. Percent inhibition of each sample was quantified. The plate was incubated for an additional 24 h to measure recovery, and viability was determined by trypan blue exclusion.
Agarose microdroplet assay. The agarose microdroplet assay was performed to determine U-937 cellular migration, as previously described {AdeCXCL121an, 1980 #1609}. 0.5×10^6 cells/ml U-937 target cells were harvested and washed in HBSS. Cells were spun at 2,000 rpm and were transferred to a graduated 15 ml glass conical tube. […] Following incubation, the radius of each droplet was determined and target cell migration was measured at four directional points 900 from one another, using an inverted light microscope equipped with a gridded eyepiece, at 40× total magnification. Percent inhibition of each sample was quantified. The plate was incubated for an additional 24 h to measure recovery, and viability was determined by trypan blue exclusion.

The next test has as its target T2, CXCR41-38 (Homo sapiens, UniProt P61073, C28A).
T2 construct: comprising the first 38 amino acids of CXCR4 preceded by a residual GlyMet dipeptide tag; made in house
As to the kind of experiment: Binding of CXCL12 variants to CXCR41-38 by 2D NMR chemical shift perturbation. The settings on record: nonlinear fitting of chemical shift perturbations, quadratic binding equation; read-out: Kd (affinity for CXCR41-38). Here is the method:
Total peptide additions differed for individual peptide titrations but ranged from 0-160 equivalencies. Spectra were processed using in-house scripts and chemical shift tracking was performed using CARA software. […] For a given interaction, residues with the largest chemical shift perturbations were fitted individually.

Entries after “also recorded” stand apart in the source; their conditions may differ.

T1 sequence (P61073 whole entry): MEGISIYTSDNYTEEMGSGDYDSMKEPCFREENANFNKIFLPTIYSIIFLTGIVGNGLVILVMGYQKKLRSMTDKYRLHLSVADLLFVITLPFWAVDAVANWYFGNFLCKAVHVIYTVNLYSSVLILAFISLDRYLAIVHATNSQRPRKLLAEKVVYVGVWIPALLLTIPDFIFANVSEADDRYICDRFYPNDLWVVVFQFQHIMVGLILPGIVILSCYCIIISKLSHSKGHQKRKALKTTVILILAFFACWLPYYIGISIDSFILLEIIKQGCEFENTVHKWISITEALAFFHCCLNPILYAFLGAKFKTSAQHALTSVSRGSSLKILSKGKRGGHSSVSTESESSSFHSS
T2 sequence (P61073 1-38 C28A): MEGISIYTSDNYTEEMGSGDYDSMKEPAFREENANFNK

Regarding “CXCL12WT: wild type CXCL12 (stromal cell-derived factor-1/SDF-1), SEQ ID NO:1”, in the test with CXCR4, the “shape of β-arrestin-2 recruitment dose response” value is recorded as “bimodal recruitment; also recorded: bimodal stimulation”. For the same substance, in the test with U-937 cells, the “maximal inhibition of U-937 cell migration” value came out at 40.1±18%.
Usually Kd stands for the constant that tells how readily two partners part at equilibrium. Take “CXCL122: constitutively dimeric variant of CXCL12 containing L36C/A65C mutations”: the dissociation constant (Kd) with CXCR41-38 worked out at 900 ± 300 nM.
